10 molecules from US12099068B2, “Biomarkers for graft-versus-host disease” (Incyte Corporation, priority 2018, dated 2024) can be followed below.

The labels stand for the following.
B1: ZBTB17 (protein, UniProt Q13105 1-803, looked up)
Zinc finger and BTB …: MDFPQHSQHVLEQLNQQRQLGLLCDCTFVVDGVHFKAHKAVLAACSEYFKMLFVDQKDVVHLDISNAAGLGQVLEFMYTAKLSLSPENVDDVLAVATFLQMQDIITACHALKSLAEPATSPGGNAEALATEGGDKRAKEEKVATSTLSRLEQAGRSTPIGPSRDLKEERGGQAQSAASGAEQTEKADAPREPPPVELKPDPTSGMAAAEAEAALSESSEQEMEVEPARKGEEEQKEQEEQEEEGAGPAEVKEEGSQLENGEAPEENENEESAGTDSGQELGSEARGLRSGTYGDRTESKAYGSVIHKCEDCGKEFTHTGNFKRHIRIHTGEKPFSCRECSKAFSDPAACKAHEKTHSPLKPYGCEECGKSYRLISLLNLHKKRHSGEARYRCEDCGKLFTTSGNLKRHQLVHSGEKPYQCDYCGRSFSDPTSKMRHLETHDTDKEHKCPHCDKKFNQVGNLKAHLKIHIADGPLKCRECGKQFTTSGNLKRHLRIHSGEKPYVCIHCQRQFADPGALQRHVRIHTGEKPCQCVMCGKAFTQASSLIAHVRQHTGEKPYVCERCGKRFVQSSQLANHIRHHDNIRPHKCSVCSKAFVNVGDLSKHIIIHTGEKPYLCDKCGRGFNRVDNLRSHVKTVHQGKAGIKILEPEEGSEVSVVTVDDMVTLATEALAATAVTQLTVVPVGAAVTADETEVLKAEISKAVKQVQEEDPNTHILYACDSCGDKFLDANSLAQHVRIHTAQALVMFQTDADFYQQYGPGGTWPAGQVLQAGELVFRPRDGAEGQPALAETSPTAPECPPPAE
B2: PLIN1 (protein, UniProt O60240 1-522, looked up)
Perilipin-1: MAVNKGLTLLDGDLPEQENVLQRVLQLPVVSGTCECFQKTYTSTKEAHPLVASVCNAYEKGVQSASSLAAWSMEPVVRRLSTQFTAANELACRGLDHLEEKIPALQYPPEKIASELKDTISTRLRSARNSISVPIASTSDKVLGAALAGCELAWGVARDTAEFAANTRAGRLASGGADLALGSIEKVVEYLLPPDKEESAPAPGHQQAQKSPKAKPSLLSRVGALTNTLSRYTVQTMARALEQGHTVAMWIPGVVPLSSLAQWGASVAMQAVSRRRSEVRVPWLHSLAAAQEEDHEDQTDTEGEDTEEEEELETEENKFSEVAALPGPRGLLGGVAHTLQKTLQTTISAVTWAPAAVLGMAGRVLHLTPAPAVSSTKGRAMSLSDALKGVTDNVVDTVVHYVPLPRLSLMEPESEFRDIDNPPAEVERREAERRASGAPSAGPEPAPRLAQPRRSLRSAQSPGAPPGPGLEDEVATPAAPRPGFPAVPREKPKRRVSDSFFRPSVMEPILGRTHYSQLRKKS
B3: TRANCE (protein, UniProt O14788 140-317, looked up)
Tumor necrosis factor ligand …: IRAEKAMVDGSWLDLAKRSKLEAQPFAHLTINATDIPSGSHKVSLSSWYHDRGWAKISNMTFSNGKLIVNQDGFYYLYANICFRHHETSGDLATEYLQLMVYVTKTSIKIPSSHTLMKGGSTKYWSGNSEFHFYSINVGGFFKLRSGEEISIEVSNPSLLDPDQDATYFGAFKVRDID
B4: AMIGO2 (protein, UniProt Q86SJ2 40-522, looked up)
Amphoterin-induced protein 2: VCPTACICATDIVSCTNKNLSKVPGNLFRLIKRLDLSYNRIGLLDSEWIPVSFAKLNTLILRHNNITSISTGSFSTTPNLKCLDLSSNKLKTVKNAVFQELKVLEVLLLYNNHISYLDPSAFGGLSQLQKLYLSGNFLTQFPMDLYVGRFKLAELMFLDVSYNRIPSMPMHHINLVPGKQLRGIYLHGNPFVCDCSLYSLLVFWYRRHFSSVMDFKNDYTCRLWSDSRHSRQVLLLQDSFMNCSDSIINGSFRALGFIHEAQVGERLMVHCDSKTGNANTDFIWVGPDNRLLEPDKEMENFYVFHNGSLVIESPRFEDAGVYSCIAMNKQRLLNETVDVTINVSNFTVSRSHAHEAFNTAFTTLAACVASIVLVLLYLYLTPCPCKCKTKRQKNMLHQSNAHSSILSPGPASDASADERKAGAGKRVVFLEPLKDTAAGQNGKVRLFPSEAVIAEGILKSTRGKSDSDSVNSVFSDTPFVAST
B5: BANK1 (protein, UniProt Q8NDB2 1-785, looked up)
B-cell scaffold protein with …: MLPAAPGKGLGSPDPAPCGPAPPGNTKDIIMIYEEDAEEWALYLTEVFLHVVKREAILLYRLENFSFRHLELLNLTSYKCKLLILSNSLLRDLTPKKCQFLEKILHSPKSVVTLLCGVKSSDQLYELLNISQSRWEISTEQEPEDYISVIQSIIFKDSEDYFEVNIPTDLRAKHSGEISERKEIEELSEASRNTIPLAVVLPTEIPCENPGEIFIILRDEVIGDTVEVEFTSSNKRIRTRPALWNKKVWCMKALEFPAGSVHVNVYCDGIVKATTKIKYYPTAKAKECLFRMADSGESLCQNSIEELDGVLTSIFKHEIPYYEFQSLQTEICSQNKYTHFKELPTLLHCAAKFGLKNLAIHLLQCSGATWASKMKNMEGSDPAHIAERHGHKELKKIFEDFSIQEIDINNEQENDYEEDIASFSTYIPSTQNPAFHHESRKTYGQSADGAEANEMEGEGKQNGSGMETKHSPLEVGSESSEDQYDDLYVFIPGADPENNSQEPLMSSRPPLPPPRPVANAFQLERPHFTLPGTMVEGQMERSQNWGHPGVRQETGDEPKGEKEKKEEEKEQEEEEDPYTFAEIDDSEYDMILANLSIKKKTGSRSFIINRPPAPTPRPTSIPPKEETTPYIAQVFQQKTARRQSDDDKFCGLPKKQDRARIESPAFSTLRGCLTDGQEELILLQEKVKNGKMSMDEALEKFKHWQMGKSGLEMIQQEKLRQLRDCIIGKRPEEENVYNKLTIVHHPGGKETAHNENKFYNVHFSNKLPARPQVEKEFGFCCKKDH
B6: CD79B (protein, UniProt P40259 29-229, looked up)
B-cell antigen receptor …: ARSEDRYRNPKGSACSRIWQSPRFIARKRGFTVKMHCYMNSASGNVSWLWKQEMDENPQQLKLEKGRMEESQNESLATLTIQGIRFEDNGIYFCQQKCNNTSEVYQGCGTELRVMGFSTLAQLKQRNTLKDGIIMIQTLLIILFIIVPIFLLLDKDDSKAGMEEDHTYEGLDIDQTATYEDIVTLRTGEVKWSVGEHPGQE
B7: NADK (protein, UniProt O95544 1-446, looked up)
NAD kinase: MEMEQEKMTMNKELSPDAAAYCCSACHGDETWSYNHPIRGRAKSRSLSASPALGSTKEFRRTRSLHGPCPVTTFGPKACVLQNPQTIMHIQDPASQRLTWNKSPKSVLVIKKMRDASLLQPFKELCTHLMEENMIVYVEKKVLEDPAIASDESFGAVKKKFCTFREDYDDISNQIDFIICLGGDGTLLYASSLFQGSVPPVMAFHLGSLGFLTPFSFENFQSQVTQVIEGNAAVVLRSRLKVRVVKELRGKKTAVHNGLGENGSQAAGLDMDVGKQAMQYQVLNEVVIDRGPSSYLSNVDVYLDGHLITTVQGDGVIVSTPTGSTAYAAAAGASMIHPNVPAIMITPICPHSLSFRPIVVPAGVELKIMLSPEARNTAWVSFDGRKRQEIRHGDSISITTSCYPLPSICVRDPVSDWFESLAQCLHWNVRKKQAHFEEEEEEEEEG
B8: ARG1 (protein, UniProt P05089 1-322, looked up)
Arginase-1: MSAKSRTIGIIGAPFSKGQPRGGVEEGPTVLRKAGLLEKLKEQECDVKDYGDLPFADIPNDSPFQIVKNPRSVGKASEQLAGKVAEVKKNGRISLVLGGDHSLAIGSISGHARVHPDLGVIWVDAHTDINTPLTTTSGNLHGQPVSFLLKELKGKIPDVPGFSWVTPCISAKDIVYIGLRDVDPGEHYILKTLGIKYFSMTEVDRLGIGKVMEETLSYLLGRKKRPIHLSFDVDGLDPSFTPATGTPVVGGLTYREGLYITEEIYKTGLLSGLDIMEVNPSLGKTPEEVTRTVNTAVAITLACFGLAREGNHKPIDYLNPPK
B9: FES (protein, UniProt P07332 1-822, looked up)
Tyrosine-protein kinase …: MGFSSELCSPQGHGVLQQMQEAELRLLEGMRKWMAQRVKSDREYAGLLHHMSLQDSGGQSRAISPDSPISQSWAEITSQTEGLSRLLRQHAEDLNSGPLSKLSLLIRERQQLRKTYSEQWQQLQQELTKTHSQDIEKLKSQYRALARDSAQAKRKYQEASKDKDRDKAKDKYVRSLWKLFAHHNRYVLGVRAAQLHHQHHHQLLLPGLLRSLQDLHEEMACILKEILQEYLEISSLVQDEVVAIHREMAAAAARIQPEAEYQGFLRQYGSAPDVPPCVTFDESLLEEGEPLEPGELQLNELTVESVQHTLTSVTDELAVATEMVFRRQEMVTQLQQELRNEEENTHPRERVQLLGKRQVLQEALQGLQVALCSQAKLQAQQELLQTKLEHLGPGEPPPVLLLQDDRHSTSSSEQEREGGRTPTLEILKSHISGIFRPKFSLPPPLQLIPEVQKPLHEQLWYHGAIPRAEVAELLVHSGDFLVRESQGKQEYVLSVLWDGLPRHFIIQSLDNLYRLEGEGFPSIPLLIDHLLSTQQPLTKKSGVVLHRAVPKDKWVLNHEDLVLGEQIGRGNFGEVFSGRLRADNTLVAVKSCRETLPPDLKAKFLQEARILKQYSHPNIVRLIGVCTQKQPIYIVMELVQGGDFLTFLRTEGARLRVKTLLQMVGDAAAGMEYLESKCCIHRDLAARNCLVTEKNVLKISDFGMSREEADGVYAASGGLRQVPVKWTAPEALNYGRYSSESDVWSFGILLWETFSLGASPYPNLSNQQTREFVEKGGRLPCPELCPDAVFRLMEQCWAYEPGQRPSFSTIYQELQSIRKRHR
B10: Flt3L (protein, UniProt P49771 27-235, looked up)
Fms-related tyrosine kinase 3 …: TQDCSFQHSPISSDFAVKIRELSDYLLQDYPVTVASNLQDEELCGGLWRLVLAQRWMERLKTVAGSKMQGLLERVNTEIHFVTKCAFQPPPSCLRFVQTNISRLLQETSEQLVALKPWITRQNFSRCLELQCQPDSSTLPPPWSPRPLEATAPTAPQPPLLLLLLLPVGLLLLAAAWCLHWQRTRRRTPRPGEQVPPVPSPQDLLLVEH

In the experiment the test system is plasma proteins. Nature of the experiment: Plasma proteins modulated between baseline and day 28 in responders (CR, VGPR, PR; n = 19), Example 6 (Table 13). Format: in vivo, human. As to conditions: plasma protein (OLINK NPX); responders (CR, VGPR, PR; n = 19); itacitinib 200 mg or 300 mg QD with corticosteroids; day 28 vs baseline. The gist of the method: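 Longitudinal comparison, day 28 versus baseline, with steroid-naive (N=10) and steroid-refractory (N=18) patients combined. Proteins measured by OLINK proximity extension, log2 normalized protein expression. Differences tested by t tests, ANOVA, Pearson correlation, P<0.05 significant.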
B1: the “Fold Change, Decreased Expression from Baseline to Day 28” value (“Fold Change, Decreased Expression” for short) was −1.2333. For the molecule B2, the “Fold Change, Increased Expression from Baseline to Day 28” value worked out at 2.4338. Turning to B3, the “Fold Change, Decreased Expression” value is −1.4034. Consider B4, for which the “Fold Change, Decreased Expression” value was −1.1962.

For the molecule B5, the “Fold Change, Decreased Expression” value was −2.0084. On the same count and under the same terms, the figure for B6 is −1.2372; for B7 it is −1.3493; for B8 it is −1.3036. The same measure, in the same setting: the figure for B9 is −1.4934.

As for B10, the “Fold Change, Increased Expression from Baseline to Day 28” value was determined as 2.3423.
